In doi:10.1101/2025.10.09.681382:

Biological target: Rubisco (Chlamydomonas reinhardtii (endogenous, purified from cells)) (UniProt P00877)
Test: fluorescence correlation spectroscopy; 20 nM EPYC1-GFP mixed with 2 μM Rubisco (no phase separation at this concentration); diffusion coefficient of EPYC1-GFP from a single-species fit

- diffusion coefficient of EPYC1-GFP with Rubisco (60 μm^2/s without Rubisco): 41 μm^2/s
Substance: EPYC1-GFP, unphosphorylated (mock-treated) (natural protein)
